The Human Domainome abundance scans (Beltran et al. 2025)
± gives the uncertainty stated by the source.

B1: Kinesin-like protein KIF16B, residues 1213 to 1273; numbered along this chain, Q96L93 (parent)
chain: ETWTVFRRYSRFREMHKTLKLKYAELAALEFPPKKLFGNKDERVIAERRSHLEKYLRDFFS

Variants of: B1
Experiment: abundance fitness (aPCA) (normalised: wild type 0, dead -1); higher = more abundant; growth selection in yeast, the domain comes from the species named
Settings: Homo sapiens

Point of comparison: ETWTVFRRYSRFRLMHKTLKLKYAELAALEFPPKKLFGNKDERVIAERRSHLEKYLRDFFS [E14L], abundance fitness -0.429 ± 0.07. Against it:
- ETWTVFRRYSREREMHKTLKLKYAELAALEFPPKKLFGNKDERVIAERRSHLEKYLRDFFS [F12E] — lower, -0.941 ± 0.23
- ETWTVFRRYSRGREMHKTLKLKYAELAALEFPPKKLFGNKDERVIAERRSHLEKYLRDFFS [F12G] — lower, -0.597 ± 0.083
- ETWTVFRRYSRIREMHKTLKLKYAELAALEFPPKKLFGNKDERVIAERRSHLEKYLRDFFS [F12I] — higher, 0.068 ± 0.14
- ETWTVFRRYSRKREMHKTLKLKYAELAALEFPPKKLFGNKDERVIAERRSHLEKYLRDFFS [F12K] — lower, -1.08 ± 0.25
- ETWTVFRRYSRMREMHKTLKLKYAELAALEFPPKKLFGNKDERVIAERRSHLEKYLRDFFS [F12M] — higher, -0.103 ± 0.14
- ETWTVFRRYSRRREMHKTLKLKYAELAALEFPPKKLFGNKDERVIAERRSHLEKYLRDFFS [F12R] — lower, -0.921 ± 0.13
- ETWTVFRRYSRSREMHKTLKLKYAELAALEFPPKKLFGNKDERVIAERRSHLEKYLRDFFS [F12S] — lower, -0.642 ± 0.11
- ETWTVFRRYSRTREMHKTLKLKYAELAALEFPPKKLFGNKDERVIAERRSHLEKYLRDFFS [F12T] — within error, -0.907 ± 0.45
- ETWTVFRRYSRVREMHKTLKLKYAELAALEFPPKKLFGNKDERVIAERRSHLEKYLRDFFS [F12V] — higher, 0.047 ± 0.067
- ETWTVFRRYSRWREMHKTLKLKYAELAALEFPPKKLFGNKDERVIAERRSHLEKYLRDFFS [F12W] — higher, 0.017 ± 0.075
- ETWTVFRRYSRYREMHKTLKLKYAELAALEFPPKKLFGNKDERVIAERRSHLEKYLRDFFS [F12Y] — within error, -0.469 ± 0.17
- ETWTVFRRYSRFAEMHKTLKLKYAELAALEFPPKKLFGNKDERVIAERRSHLEKYLRDFFS [R13A] — higher, 0.096 ± 0.1
- ETWTVFRRYSRFCEMHKTLKLKYAELAALEFPPKKLFGNKDERVIAERRSHLEKYLRDFFS [R13C] — within error, -0.333 ± 0.18
- ETWTVFRRYSRFDEMHKTLKLKYAELAALEFPPKKLFGNKDERVIAERRSHLEKYLRDFFS [R13D] — higher, 0.391 ± 0.15
- ETWTVFRRYSRFEEMHKTLKLKYAELAALEFPPKKLFGNKDERVIAERRSHLEKYLRDFFS [R13E] — within error, -0.354 ± 0.1
- ETWTVFRRYSRFGEMHKTLKLKYAELAALEFPPKKLFGNKDERVIAERRSHLEKYLRDFFS [R13G] — higher, 0.023 ± 0.04
- ETWTVFRRYSRFKEMHKTLKLKYAELAALEFPPKKLFGNKDERVIAERRSHLEKYLRDFFS [R13K] — higher, 0.1 ± 0.079
- ETWTVFRRYSRFLEMHKTLKLKYAELAALEFPPKKLFGNKDERVIAERRSHLEKYLRDFFS [R13L] — higher, -0.108 ± 0.12
- ETWTVFRRYSRFMEMHKTLKLKYAELAALEFPPKKLFGNKDERVIAERRSHLEKYLRDFFS [R13M] — within error, -0.153 ± 0.37
- ETWTVFRRYSRFNEMHKTLKLKYAELAALEFPPKKLFGNKDERVIAERRSHLEKYLRDFFS [R13N] — within error, -0.265 ± 0.21
- ETWTVFRRYSRFQEMHKTLKLKYAELAALEFPPKKLFGNKDERVIAERRSHLEKYLRDFFS [R13Q] — within error, -0.398 ± 0.16
- ETWTVFRRYSRFSEMHKTLKLKYAELAALEFPPKKLFGNKDERVIAERRSHLEKYLRDFFS [R13S] — higher, -0.137 ± 0.083
- ETWTVFRRYSRFTEMHKTLKLKYAELAALEFPPKKLFGNKDERVIAERRSHLEKYLRDFFS [R13T] — higher, -0.056 ± 0.065
- ETWTVFRRYSRFVEMHKTLKLKYAELAALEFPPKKLFGNKDERVIAERRSHLEKYLRDFFS [R13V] — within error, -0.443 ± 0.073
- ETWTVFRRYSRFWEMHKTLKLKYAELAALEFPPKKLFGNKDERVIAERRSHLEKYLRDFFS [R13W] — higher, -0.213 ± 0.072
- ETWTVFRRYSRFYEMHKTLKLKYAELAALEFPPKKLFGNKDERVIAERRSHLEKYLRDFFS [R13Y] — higher, -0.079 ± 0.25
- ETWTVFRRYSRFRAMHKTLKLKYAELAALEFPPKKLFGNKDERVIAERRSHLEKYLRDFFS [E14A] — within error, -0.318 ± 0.097
- ETWTVFRRYSRFRCMHKTLKLKYAELAALEFPPKKLFGNKDERVIAERRSHLEKYLRDFFS [E14C] — within error, -0.319 ± 0.2
- ETWTVFRRYSRFRDMHKTLKLKYAELAALEFPPKKLFGNKDERVIAERRSHLEKYLRDFFS [E14D] — higher, -0.159 ± 0.18
- ETWTVFRRYSRFRFMHKTLKLKYAELAALEFPPKKLFGNKDERVIAERRSHLEKYLRDFFS [E14F] — within error, -0.433 ± 0.22
- ETWTVFRRYSRFRGMHKTLKLKYAELAALEFPPKKLFGNKDERVIAERRSHLEKYLRDFFS [E14G] — higher, -0.183 ± 0.063
- ETWTVFRRYSRFRHMHKTLKLKYAELAALEFPPKKLFGNKDERVIAERRSHLEKYLRDFFS [E14H] — higher, 0.13 ± 0.19
- ETWTVFRRYSRFRIMHKTLKLKYAELAALEFPPKKLFGNKDERVIAERRSHLEKYLRDFFS [E14I] — lower, -0.867 ± 0.22
- ETWTVFRRYSRFRMMHKTLKLKYAELAALEFPPKKLFGNKDERVIAERRSHLEKYLRDFFS [E14M] — within error, -0.41 ± 0.092
- ETWTVFRRYSRFRNMHKTLKLKYAELAALEFPPKKLFGNKDERVIAERRSHLEKYLRDFFS [E14N] — within error, -0.556 ± 0.15
- ETWTVFRRYSRFRPMHKTLKLKYAELAALEFPPKKLFGNKDERVIAERRSHLEKYLRDFFS [E14P] — within error, -0.589 ± 0.25
- ETWTVFRRYSRFRQMHKTLKLKYAELAALEFPPKKLFGNKDERVIAERRSHLEKYLRDFFS [E14Q] — within error, -0.534 ± 0.14
- ETWTVFRRYSRFRSMHKTLKLKYAELAALEFPPKKLFGNKDERVIAERRSHLEKYLRDFFS [E14S] — higher, -0.229 ± 0.064
- ETWTVFRRYSRFRTMHKTLKLKYAELAALEFPPKKLFGNKDERVIAERRSHLEKYLRDFFS [E14T] — within error, -0.597 ± 0.22
- ETWTVFRRYSRFRVMHKTLKLKYAELAALEFPPKKLFGNKDERVIAERRSHLEKYLRDFFS [E14V] — within error, -0.299 ± 0.066
- ETWTVFRRYSRFRWMHKTLKLKYAELAALEFPPKKLFGNKDERVIAERRSHLEKYLRDFFS [E14W] — lower, -0.69 ± 0.094
- ETWTVFRRYSRFREAHKTLKLKYAELAALEFPPKKLFGNKDERVIAERRSHLEKYLRDFFS [M15A] — higher, -0.044 ± 0.078
- ETWTVFRRYSRFREEHKTLKLKYAELAALEFPPKKLFGNKDERVIAERRSHLEKYLRDFFS [M15E] — lower, -1.09 ± 0.17
